The target of assay [1] is Recombinant soluble human FcRn (human) (UniProt P55899). As to the kind of experiment: SPR, FcRn immobilised, pH 6.0; reference R593. (In general: In SPR one partner is held on a chip, and binding of the other changes the refractive index at the surface.)
In assay [2] the target is RhD antigen on RhD+ red blood cells (UniProt Q02161). As to the kind of experiment: flow cytometry on RhD+ red blood cells. On the technique in general: A flow cytometer gives signals particle by particle.
RhD antigen on RhD+ red blood cells, sequence (Q02161 2-417 limits assumed): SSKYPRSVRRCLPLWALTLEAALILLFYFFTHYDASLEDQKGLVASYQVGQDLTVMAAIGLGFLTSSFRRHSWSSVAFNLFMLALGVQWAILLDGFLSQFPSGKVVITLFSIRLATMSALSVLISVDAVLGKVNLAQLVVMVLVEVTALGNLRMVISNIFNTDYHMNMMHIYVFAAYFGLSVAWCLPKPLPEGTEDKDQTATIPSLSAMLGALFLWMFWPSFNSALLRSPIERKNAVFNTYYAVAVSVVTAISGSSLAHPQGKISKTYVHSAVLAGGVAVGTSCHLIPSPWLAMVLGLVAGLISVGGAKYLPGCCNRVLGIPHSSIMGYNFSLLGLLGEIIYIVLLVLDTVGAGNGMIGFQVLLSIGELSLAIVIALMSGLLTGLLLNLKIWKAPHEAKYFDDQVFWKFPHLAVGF
The target in assay [3] is Recombinant soluble human FcRn (human) (UniProt P55899). The assay can be described thus: SPR (BIAcore X100), FcRn immobilised, pH 6.0.
The target of assay [4] is FcγRIIIaF158 (PX Therapeutics, His-tagged) (human) (UniProt P08637). As to the kind of experiment: ELISA, purified IgG from YB2/0, vs R593 IgG-WT. On the technique in general: ELISA stands for enzyme-linked immunosorbent assay.
FcγRIIIaF158 (PX Therapeutics, His-tagged) (human), sequence (P08637 17-208 limits assumed): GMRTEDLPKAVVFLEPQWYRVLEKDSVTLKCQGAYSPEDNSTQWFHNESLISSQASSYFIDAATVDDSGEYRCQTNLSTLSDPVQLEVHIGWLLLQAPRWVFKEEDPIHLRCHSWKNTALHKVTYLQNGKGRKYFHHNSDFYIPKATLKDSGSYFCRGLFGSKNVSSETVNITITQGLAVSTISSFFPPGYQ
Assay [5] addresses FcγRI (R&D system) (human) (UniProt P12314). The assay can be described thus: ELISA, purified IgG from YB2/0, vs R593 IgG-WT.
For assay [6], the target named is FcγRIIb (R&D system) (human) (UniProt P31994). The assay can be described thus: ELISA, purified IgG from YB2/0, vs R593 IgG-WT.
FcγRIIb (R&D system) (human), sequence (P31994 46-217 limits assumed): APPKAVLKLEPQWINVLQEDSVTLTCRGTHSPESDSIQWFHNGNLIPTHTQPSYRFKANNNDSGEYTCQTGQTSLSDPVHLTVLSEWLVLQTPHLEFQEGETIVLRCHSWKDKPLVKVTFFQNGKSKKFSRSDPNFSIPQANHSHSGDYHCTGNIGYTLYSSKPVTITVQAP
The target of assay [7] is FcγRIIaR131 (R&D system) (human) (UniProt P12318). The assay can be described thus: ELISA, purified IgG from YB2/0, vs R593 IgG-WT.
FcγRIIaR131 (R&D system) (human), sequence (P12318 36-218 H167R limits assumed): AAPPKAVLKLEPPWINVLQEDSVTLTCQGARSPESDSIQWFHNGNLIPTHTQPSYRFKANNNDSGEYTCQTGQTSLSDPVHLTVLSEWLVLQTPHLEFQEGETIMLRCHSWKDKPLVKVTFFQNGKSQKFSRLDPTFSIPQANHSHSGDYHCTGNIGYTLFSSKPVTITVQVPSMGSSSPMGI
The target of assay [8] is FcγRIIaH131 (PX Therapeutics, His-tagged) (human) (UniProt P12318). The assay can be described thus: ELISA, purified IgG from YB2/0, vs R593 IgG-WT.
FcγRIIaH131 (PX Therapeutics, His-tagged) (human), sequence (P12318 34-217 limits assumed): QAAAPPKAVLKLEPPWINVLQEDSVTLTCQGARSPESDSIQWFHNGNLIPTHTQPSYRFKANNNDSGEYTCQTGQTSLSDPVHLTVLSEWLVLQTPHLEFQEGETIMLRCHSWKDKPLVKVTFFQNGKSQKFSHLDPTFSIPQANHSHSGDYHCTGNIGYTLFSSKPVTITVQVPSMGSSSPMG
The target of assay [9] is FcRn-p3 (fusion protein of β2 microglobulin chain and FcRn α-chain fused to bacteriophage protein p3 and CVDE protein) (UniProt P61769). The assay can be described thus: ELISA, purified IgG from YB2/0, vs R593 IgG-WT.
FcRn-p3 (fusion protein of β2 microglobulin chain and FcRn α-chain fused to bacteriophage protein p3 and CVDE protein), sequence (P61769 21-119, chain 1 of 2): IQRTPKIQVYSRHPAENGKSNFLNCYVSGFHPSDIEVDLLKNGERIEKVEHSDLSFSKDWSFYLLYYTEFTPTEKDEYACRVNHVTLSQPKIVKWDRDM
FcRn-p3 (fusion protein of β2 microglobulin chain and FcRn α-chain fused to bacteriophage protein p3 and CVDE protein), sequence (P55899 24-290, chain 2 of 2, further chain): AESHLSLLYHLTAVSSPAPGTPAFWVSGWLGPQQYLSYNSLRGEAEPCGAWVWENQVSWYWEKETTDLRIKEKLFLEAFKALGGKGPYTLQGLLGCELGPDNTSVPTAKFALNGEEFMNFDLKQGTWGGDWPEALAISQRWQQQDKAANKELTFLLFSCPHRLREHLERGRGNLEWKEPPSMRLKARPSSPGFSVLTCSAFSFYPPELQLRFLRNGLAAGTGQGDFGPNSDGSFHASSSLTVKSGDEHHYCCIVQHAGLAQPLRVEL
The target of assay [10] is FcγRIIIaV158 (R&D system) (human) (UniProt P08637). The assay can be described thus: ELISA, purified IgG from YB2/0, vs R593 IgG-WT.
FcγRIIIaV158 (R&D system) (human), sequence (P08637 17-208 F176V limits assumed): as the sequence (P08637 17-208 limits assumed) above, with F160V counted along it
The target in a further assay is Fcγ receptors. The assay can be described thus: cell-based or functional assay.
For assay [11], the target named is FcγRI (R&D system) (human) (UniProt P12314). The assay can be described thus: ELISA, 293-F supernatant, vs R603 IgG-WT.
FcγRI (R&D system) (human), sequence (P12314 16-288 limits assumed): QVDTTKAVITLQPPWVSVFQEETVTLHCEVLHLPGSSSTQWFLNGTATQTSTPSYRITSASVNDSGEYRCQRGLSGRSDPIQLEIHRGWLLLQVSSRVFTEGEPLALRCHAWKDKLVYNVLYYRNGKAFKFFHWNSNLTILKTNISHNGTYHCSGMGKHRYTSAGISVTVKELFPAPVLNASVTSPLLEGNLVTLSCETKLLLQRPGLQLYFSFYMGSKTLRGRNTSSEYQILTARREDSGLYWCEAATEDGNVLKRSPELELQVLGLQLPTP
Assay [12] concerns the target FcγRIIb (R&D system) (human) (UniProt P31994). The assay can be described thus: ELISA, 293-F supernatant, vs R603 IgG-WT.
For assay [13], the target named is C1q complement (Calbiochem) (UniProt P02745). The assay can be described thus: ELISA, 293-F supernatant, vs R603 IgG-WT.
C1q complement (Calbiochem), sequence (P02745 23-245, chain 1 of 3): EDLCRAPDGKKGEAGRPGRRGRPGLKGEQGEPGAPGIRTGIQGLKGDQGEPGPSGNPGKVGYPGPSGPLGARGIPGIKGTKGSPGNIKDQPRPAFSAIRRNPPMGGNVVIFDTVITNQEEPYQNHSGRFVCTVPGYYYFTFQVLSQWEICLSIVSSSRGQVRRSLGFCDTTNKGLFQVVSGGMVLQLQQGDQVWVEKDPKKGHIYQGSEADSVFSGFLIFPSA
C1q complement (Calbiochem), sequence (P02746 28-253, chain 2 of 3, further chain): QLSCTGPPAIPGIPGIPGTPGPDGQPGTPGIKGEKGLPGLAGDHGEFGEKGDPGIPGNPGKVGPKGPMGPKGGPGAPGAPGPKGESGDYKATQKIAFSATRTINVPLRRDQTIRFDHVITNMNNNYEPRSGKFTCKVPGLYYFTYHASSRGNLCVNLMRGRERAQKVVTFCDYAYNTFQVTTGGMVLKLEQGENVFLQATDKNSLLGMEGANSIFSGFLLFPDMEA
C1q complement (Calbiochem), sequence (P02747 29-245, chain 3 of 3, further chain): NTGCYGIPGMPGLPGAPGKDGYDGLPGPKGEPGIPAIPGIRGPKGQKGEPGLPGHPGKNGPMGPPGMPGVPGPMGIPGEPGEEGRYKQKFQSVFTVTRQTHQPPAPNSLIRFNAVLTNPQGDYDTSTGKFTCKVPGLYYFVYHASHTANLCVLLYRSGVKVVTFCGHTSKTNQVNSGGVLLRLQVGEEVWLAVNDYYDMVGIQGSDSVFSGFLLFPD
Assay [14] addresses FcγRIIaR131 (R&D system) (human) (UniProt P12318). The assay can be described thus: ELISA, 293-F supernatant, vs R603 IgG-WT.
Assay [15] concerns the target FcRn-p3 (fusion protein of β2 microglobulin chain and FcRn α-chain fused to bacteriophage protein p3 and CVDE protein) (UniProt P61769). The assay can be described thus: ELISA, 293-F supernatant, vs R603 IgG-WT.
Assay [16] addresses FcγRIIIaV158 (R&D system) (human) (UniProt P08637). As to the kind of experiment: ELISA, 293-F supernatant, vs R603 IgG-WT.
Assay [17] addresses FcγRIIIaF158 (PX Therapeutics, His-tagged) (human) (UniProt P08637). As to the kind of experiment: ELISA, purified IgG from YB2/0, vs R603 IgG-WT.
The target of assay [18] is FcγRI (R&D system) (human) (UniProt P12314). As to the kind of experiment: ELISA, purified IgG from YB2/0, vs R603 IgG-WT.
The target in assay [19] is FcγRIIb (R&D system) (human) (UniProt P31994). The assay can be described thus: ELISA, purified IgG from YB2/0, vs R603 IgG-WT.
Assay [20] concerns the target FcγRIIaR131 (R&D system) (human) (UniProt P12318). As to the kind of experiment: ELISA, purified IgG from YB2/0, vs R603 IgG-WT.
For assay [21], the target named is FcγRIIaH131 (PX Therapeutics, His-tagged) (human) (UniProt P12318). As to the kind of experiment: ELISA, purified IgG from YB2/0, vs R603 IgG-WT.
The target of assay [22] is FcRn-p3 (fusion protein of β2 microglobulin chain and FcRn α-chain fused to bacteriophage protein p3 and CVDE protein) (UniProt P61769). The assay can be described thus: ELISA, purified IgG from YB2/0, vs R603 IgG-WT.
Assay [23] has as its target FcγRIIIaV158 (R&D system) (human) (UniProt P08637). As to the kind of experiment: ELISA, purified IgG from YB2/0, vs R603 IgG-WT.
Assay [24] deals with C1q complement (Calbiochem) (UniProt P02745). As to the kind of experiment: cell-based or functional assay.
For assay [25], the target named is T1, CD20 antigen on Raji lymphoblastoid B cells (UniProt P11836).
T1 sequence (looked up): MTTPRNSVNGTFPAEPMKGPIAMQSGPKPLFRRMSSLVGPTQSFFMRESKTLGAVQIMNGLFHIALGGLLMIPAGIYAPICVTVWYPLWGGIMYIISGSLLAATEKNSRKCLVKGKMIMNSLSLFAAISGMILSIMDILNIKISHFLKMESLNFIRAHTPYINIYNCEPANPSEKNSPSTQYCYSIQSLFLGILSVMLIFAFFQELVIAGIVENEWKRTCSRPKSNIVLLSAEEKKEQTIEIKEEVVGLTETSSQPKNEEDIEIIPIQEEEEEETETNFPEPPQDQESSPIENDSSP
As to the kind of experiment: flow cytometry on Raji cells.

Assay [26] has as its target Recombinant soluble human FcRn (human) (UniProt P55899). As to the kind of experiment: SPR, FcRn immobilised, pH 6.0; reference R603.

Recombinant soluble human FcRn (human), sequence (P55899 24-290 limits assumed, chain 1 of 2): as the sequence (P55899 24-290, chain 2 of 2, further chain) above
Recombinant soluble human FcRn (human), sequence (P61769 21-119 limits assumed, chain 2 of 2, further chain): as the sequence (P61769 21-119, chain 1 of 2) above

In general, Kd refers to the equilibrium constant for the complex coming apart. Take “R593 anti-RhD+ IgG1 variant 256N/378V/383N/434Y (antibody)”: in assay [1], the Ratio WT/IgG (KD) is 4.52. Moreover, the Ag binding MFI (Arbitrary Unit) in assay [2] was determined as 49.6. Moreover, the Kd in [3] was 42 nM. Also, the Ratio/IgG-WT in assay [4] turned out to be 0.92; in assay [5] it was 2.19; in [6], 1.55; in assay [7], 1.08; in assay [8], 1.01; in [9] it was 7.49. Also, in assay [10], the Ratio/IgG-WT stood at 0.98. Also, in the assay with Fcγ receptors, the ADCC EC50 (ng/ml), lysis of RhD+ red cells came to 11.1 ng/mL. In the assay with Fcγ receptors, this substance registered an ADCC Max. Lysis (%) of 93%.

Consider “R593 anti-RhD+ IgG1 variant 259I/315D/434Y (antibody)”, for which the Ratio WT/IgG (KD) in assay [1] was found to be 9.31. In assay [2], the Ag binding MFI (Arbitrary Unit) came out at 47.2. The Kd in assay [3] amounted to 20.4 nM. For the same substance, the Ratio/IgG-WT in [4] was 0.94; in [5] it was 1.08; in [6], 1.41; in assay [7], 1.05; in [8] it was 0.94; in assay [9] it was 7.93. The Ratio/IgG-WT in [10] turned out to be 0.95. The same substance yielded an ADCC EC50 (ng/ml), lysis of RhD+ red cells with Fcγ receptors of 14.2 ng/mL. The substance also yielded an ADCC Max. Lysis (%) with Fcγ receptors of 89%.

In the case of “R593 anti-RhD+ IgG1 variant 294Del (antibody)”, the Ag binding MFI (Arbitrary Unit) in [2] turned out to be 52.6. Further, the equilibrium dissociation constant (Kd) in assay [3] was determined as 204 nM. For the same substance, in the assay with Fcγ receptors, the ADCC EC50 (ng/ml), lysis of RhD+ red cells is 75.9 ng/mL and the ADCC Max. Lysis (%) was 5%.

Consider “R603 anti-CD20 IgG1 variant 230S/294Del/315D/428L/434Y (antibody)”, for which the Ratio/IgG-WT worked out at 0.25 in assay [11]; 0.02 in assay [12]; 0.35 in assay [13]; 0.01 in assay [14]; 3.86 in assay [15].

As to “R603 anti-CD20 IgG1 variant 256N/378V/383N/434Y (antibody)”, the Ratio/IgG-WT in [11] was determined as 0.93; in assay [12] it was 4.77; in assay [13] it was 3.65; in assay [14], 2.59; in assay [15] it was 4.63; in [16] it was 2.09. Further, the Ratio/IgG-WT in [17] came to 1.25; in [18] it was 2.19; in assay [19] it was 1.83; in assay [20], 1.4; in assay [21], 0.93; in [22], 8.51. Further, in [23], the Ratio/IgG-WT came out at 1.22.

With “R603 anti-CD20 IgG1 variant 259I/315D/434Y (antibody)”, the Kd in assay [3] was 26.9 nM. The same substance came in with a CDC EC50 in assay [24] of 0.41 µg/mL. Further, the Ag binding MFI (Arbitrary Unit) in assay [25] is 137. Also, the Ratio/IgG-WT was found to be 0.82 in assay [11]; 1.07 in assay [12]; 1.26 in [13]; 1.23 in [14]; 4.32 in assay [15]; 1.08 in assay [16]. Further, the Ratio/IgG-WT in [17] is 1.11; in assay [18] it was 1.12; in [19] it was 1.54; in assay [20], 1.11; in assay [21], 0.99; in [22], 6.93. In addition, the Ratio/IgG-WT in [23] is 1.11. The Ratio WT/IgG (KD) in assay [26] was determined as 3.68.

“R603 anti-CD20 IgG1 variant 294Del (antibody)”: the dissociation constant (Kd) in assay [3] came to 190 nM. The same substance gave an Ag binding MFI (Arbitrary Unit) in [25] of 126.

On to “R603 anti-CD20 IgG1 variant 294Del/302A (antibody)”, for which the Ratio/IgG-WT in [11] was determined as 0.06; in [12] it was 0.06; in assay [13], 0.21; in assay [14], 0.02; in assay [15], 0.66.

Turning to “R603 anti-CD20 IgG1 variant 294Del/307A (antibody)”, the Ratio/IgG-WT in assay [11] worked out at 0.35; in assay [12], 0.2; in assay [13], 0.46; in assay [14] it was 0.01; in [15], 1.94.

As to “R603 anti-CD20 IgG1 variant 294Del/315D (antibody)”, the Ratio/IgG-WT in [11] turned out to be 0.4; in assay [12], 0.21; in assay [13] it was 0.29; in [15] it was 1.16.

In the case of “R603 anti-CD20 IgG1 variant 294Del/378V (antibody)”, the Ratio/IgG-WT in assay [11] was found to be 0.33; in [12] it was 0.11; in assay [14] it was 0.06; in assay [15], 1.46.

As for “R603 anti-CD20 IgG1 variant 294Del/397M (antibody)”, the Ratio/IgG-WT came out at 0.68 in assay [11]; 0.04 in [12]; 0.25 in assay [13]; 0.03 in assay [14]; 0.84 in [15].

“R603 anti-CD20 IgG1 variant 294Del/434S (antibody)”: the Ratio/IgG-WT in [11] amounted to 0.49; in assay [12], 0.05; in [13] it was 0.25; in assay [14] it was 0.02; in [15], 2.64.

The values above are taken from patent US20140378663A1.
